Laboratory results published in patent US20080058272A1, “Nonamer Peptides for Cancer Treatment” (priority 2006, published 2008).
Each block holds one binder with its values, some of them ahead of it.

Molecular target: T1, HLA-A2 (human), P04439
T1 chain: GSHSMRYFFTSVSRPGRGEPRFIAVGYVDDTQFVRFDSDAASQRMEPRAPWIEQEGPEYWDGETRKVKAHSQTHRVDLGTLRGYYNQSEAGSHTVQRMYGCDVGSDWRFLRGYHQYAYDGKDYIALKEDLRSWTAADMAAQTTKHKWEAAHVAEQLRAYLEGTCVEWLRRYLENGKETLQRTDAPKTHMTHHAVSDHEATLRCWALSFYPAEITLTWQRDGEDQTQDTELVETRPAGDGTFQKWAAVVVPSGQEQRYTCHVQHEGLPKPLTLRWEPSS
Experiment: competitive binding assay (flow cytometry)
Conditions: modification not given

B1: FAPα18-26 (…) (peptide)
chain: ALLVMCIVL
- IC50: 650 µM

B2: FAPα486-494 (487L, 494V) (…) (peptide)
chain: KLLEENKEV
- IC50: 25.4 µM

B3: FAPα463-471 (471V) (…) (peptide)
chain: ALVCYGPGV
- IC50: 4.6 µM

B5: FAPα463-471 (471L) (…) (peptide)
chain: ALVCYGPGL
- IC50: 3.9 µM

Further binders by falling IC50, results first:

- IC50: 150 µM
B6: FAPα16-24 (…) (peptide)
chain: VLALLVMCI

- IC50: 21.3 µM
B4: FAPα486-494 (487L) (…) (peptide)
chain: KLLEENKEL
